Reference: patent publication US20140010832A1 (EPFL TTO, published 2014)

B1: human VEGF-A121-PlGF2123-144 (ligand)
chain: APMAEGGGQNHHEVVKFMDVYQRSYCHPIETLVDIFQEYPDEIEYIFKPSCVPLMRCGGCCNDEGLECVPTEESNITMQIMRIKPHQGQHIGEMSFLQHNKCECRPKKDRARQERRRPKGRGKRRREKQRPTDCHLCDKPRR
B2: PlGF2 (ligand)
chain: PAVPPQQWALSAGNGSSEVEVVPFQEVWGRSYCRALERLVDVVSEYPSEVEHMFSPSCVSLLRCTGCCGDENLHCVPVETANVTMQLLKIRSGDRPSYVELTFSQHVRCECRPLREKMKPERRRPKRGKRRREKQRPTDCHLCGDAVPRR
notes: also called PIGF-2; placenta growth factor 2
B3: human BMP-2-PlGF2123-144* (ligand)
chain: QAKHKQRKRLKSSCKRHPLYVDFSDVGWNDWIVAPPGYHAFYCHGECPFPLADHLNSTNHAIVQTLVNSVNSKIPKACCVPTELSAISMLYLDENEKVVLKNYQDMVVEGCGCRRRPKGRGKRRREKQRPTDSHL
notes: Inserted at the C-terminus of BMP-2
B4: human PDGF-BB-PlGF2123-144 (ligand)
chain: SLGSLTIAEPAMIAECKTRTEVFEISRRLIDRTNANFLVWPPCVEVQRCSGCCNNRNVQCRPTQVQLRPVQVRKIEIVRKKPIFKKATVTLEDHLACKCETVAAARPVTRRRPKGRGKRRREKQRPTDCHL

target: Collagen I; experiment: ELISA; cytokine coated, ECM protein 0.02 to 320 nM, KD by non-linear fit
Sequence (P02452 162-1218, chain 1 of 2): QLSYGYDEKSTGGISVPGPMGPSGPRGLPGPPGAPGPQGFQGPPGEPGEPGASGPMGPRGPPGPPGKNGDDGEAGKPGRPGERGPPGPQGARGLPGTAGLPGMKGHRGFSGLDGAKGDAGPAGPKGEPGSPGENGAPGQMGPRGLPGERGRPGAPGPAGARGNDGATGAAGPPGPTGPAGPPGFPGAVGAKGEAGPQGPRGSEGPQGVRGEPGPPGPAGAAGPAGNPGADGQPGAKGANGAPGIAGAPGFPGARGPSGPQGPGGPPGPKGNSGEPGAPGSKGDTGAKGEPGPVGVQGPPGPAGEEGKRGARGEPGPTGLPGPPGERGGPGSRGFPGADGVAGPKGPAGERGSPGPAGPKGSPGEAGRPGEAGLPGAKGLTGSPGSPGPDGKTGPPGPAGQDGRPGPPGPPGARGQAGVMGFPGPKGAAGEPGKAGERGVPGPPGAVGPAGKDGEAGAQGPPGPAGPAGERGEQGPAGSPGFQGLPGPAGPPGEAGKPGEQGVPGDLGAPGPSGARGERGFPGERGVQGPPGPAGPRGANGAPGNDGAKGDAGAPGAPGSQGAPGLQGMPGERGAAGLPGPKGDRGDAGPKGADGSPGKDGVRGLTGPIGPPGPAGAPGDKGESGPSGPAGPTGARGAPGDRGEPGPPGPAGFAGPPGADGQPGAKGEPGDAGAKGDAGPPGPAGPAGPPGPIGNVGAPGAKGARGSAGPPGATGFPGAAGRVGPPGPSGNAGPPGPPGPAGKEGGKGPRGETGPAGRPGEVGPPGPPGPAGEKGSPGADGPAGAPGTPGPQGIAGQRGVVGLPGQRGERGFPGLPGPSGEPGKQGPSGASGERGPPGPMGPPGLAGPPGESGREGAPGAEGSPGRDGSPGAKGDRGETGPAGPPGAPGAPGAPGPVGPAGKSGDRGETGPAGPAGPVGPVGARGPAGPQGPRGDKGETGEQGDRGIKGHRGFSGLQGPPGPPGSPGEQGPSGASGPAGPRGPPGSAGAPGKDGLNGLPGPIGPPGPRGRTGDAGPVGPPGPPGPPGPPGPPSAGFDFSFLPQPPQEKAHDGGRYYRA
Sequence (P08123 80-1119, chain 2 of 2, further chain): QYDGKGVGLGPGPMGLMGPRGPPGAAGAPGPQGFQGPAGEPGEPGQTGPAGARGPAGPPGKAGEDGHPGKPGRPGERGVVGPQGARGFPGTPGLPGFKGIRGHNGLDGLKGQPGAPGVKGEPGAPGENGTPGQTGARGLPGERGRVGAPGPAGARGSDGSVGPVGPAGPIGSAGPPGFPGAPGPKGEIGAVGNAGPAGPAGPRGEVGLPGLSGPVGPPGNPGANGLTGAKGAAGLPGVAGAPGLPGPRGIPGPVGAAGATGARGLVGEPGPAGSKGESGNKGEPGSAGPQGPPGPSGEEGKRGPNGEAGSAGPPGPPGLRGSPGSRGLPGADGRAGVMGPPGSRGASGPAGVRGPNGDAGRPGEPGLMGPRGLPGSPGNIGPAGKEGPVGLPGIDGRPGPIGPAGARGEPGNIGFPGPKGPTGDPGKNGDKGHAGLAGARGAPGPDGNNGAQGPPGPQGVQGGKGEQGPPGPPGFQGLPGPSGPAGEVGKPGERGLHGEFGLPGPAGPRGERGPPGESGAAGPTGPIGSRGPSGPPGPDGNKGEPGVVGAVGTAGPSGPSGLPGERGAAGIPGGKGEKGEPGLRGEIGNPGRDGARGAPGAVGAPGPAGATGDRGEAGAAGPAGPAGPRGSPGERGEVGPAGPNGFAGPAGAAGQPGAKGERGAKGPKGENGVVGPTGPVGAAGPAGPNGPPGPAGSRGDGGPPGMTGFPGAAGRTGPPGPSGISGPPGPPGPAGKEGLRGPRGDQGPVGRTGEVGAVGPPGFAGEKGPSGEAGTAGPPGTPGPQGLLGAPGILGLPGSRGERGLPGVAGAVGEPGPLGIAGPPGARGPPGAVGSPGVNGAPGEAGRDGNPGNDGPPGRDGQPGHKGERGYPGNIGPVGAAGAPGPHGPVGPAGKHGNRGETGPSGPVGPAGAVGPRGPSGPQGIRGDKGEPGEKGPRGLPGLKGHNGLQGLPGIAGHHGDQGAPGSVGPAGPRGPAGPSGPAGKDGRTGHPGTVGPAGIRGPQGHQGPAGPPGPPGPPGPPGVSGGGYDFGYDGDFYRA

Row | Kd | Binder
1 | 124 nM | B1
2 | 126 nM | B2
3 | 102 nM | B3
4 | 96.3 nM | B4
